In paper PMC6220978, “Induced conformational changes activate the peptidoglycan synthase PBP1B” (Molecular Microbiology, 2018) one finds Kd data, which are given here for 1 molecule.

Substitutions are numbered along the chain they refer to.

Common to all, as to assay: SPR; PBP1B versions immobilised to the chip surface; LpoB injected from 19.5 nM to 10 μM; apparent KD by non-linear regression, at least three independent experiments
Common to all, as to conditions: both partners purified
On the technique in general: In SPR one partner is held on a chip, and binding of the other changes the refractive index at the surface.

One test deals with T1, PBP1B P162C/I644C (E. coli, UniProt P02919 46-844, P162C | I644C).
T1 construct: PBP1B, E. coli, residues 46-844, made by mutagenesis of pDML924; Disulphide bridge between C162 and C644 (no free thiol groups detected); reduced in the SPR assay with 2 mM TCEP; source: E. coli BL21(DE3), purified (membrane extract, HisTrap, thrombin, HiTrap SP ion exchange)
T1 sequence (looked up): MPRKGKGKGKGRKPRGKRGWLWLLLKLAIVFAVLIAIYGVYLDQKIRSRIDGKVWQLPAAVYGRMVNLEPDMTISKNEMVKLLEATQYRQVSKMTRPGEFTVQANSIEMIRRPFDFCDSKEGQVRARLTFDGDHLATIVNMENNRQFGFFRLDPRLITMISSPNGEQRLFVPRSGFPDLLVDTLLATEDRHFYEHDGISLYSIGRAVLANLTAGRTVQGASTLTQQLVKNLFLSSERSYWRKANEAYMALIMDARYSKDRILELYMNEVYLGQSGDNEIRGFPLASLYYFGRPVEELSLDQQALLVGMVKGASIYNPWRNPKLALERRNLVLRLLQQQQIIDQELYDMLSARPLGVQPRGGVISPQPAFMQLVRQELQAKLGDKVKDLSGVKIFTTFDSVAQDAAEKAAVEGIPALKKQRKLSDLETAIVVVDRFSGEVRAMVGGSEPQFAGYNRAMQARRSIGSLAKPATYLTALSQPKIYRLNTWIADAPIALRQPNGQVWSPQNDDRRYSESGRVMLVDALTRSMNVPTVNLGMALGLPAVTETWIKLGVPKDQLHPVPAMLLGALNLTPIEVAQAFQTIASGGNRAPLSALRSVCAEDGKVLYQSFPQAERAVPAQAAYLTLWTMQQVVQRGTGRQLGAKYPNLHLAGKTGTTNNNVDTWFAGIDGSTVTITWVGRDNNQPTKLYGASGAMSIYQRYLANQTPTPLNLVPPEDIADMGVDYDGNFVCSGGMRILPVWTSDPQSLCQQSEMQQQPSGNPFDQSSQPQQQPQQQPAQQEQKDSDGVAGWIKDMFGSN

The target of another test is T2, PBP1B D443A (E. coli, UniProt P02919 46-844, D443A).
T2 construct: PBP1B, E. coli, residues 46-844, made by mutagenesis of pDML924; source: E. coli BL21(DE3), purified (membrane extract, HisTrap, thrombin, HiTrap SP ion exchange)
T2 sequence (looked up): T1 sequence (looked up) with C117P, D398A, C599I

For test [1], the target named is T3, PBP1B (wild type, PBP1B^46-844) (E. coli, UniProt P02919 46-844).
T3 construct: PBP1B, E. coli, residues 46-844, encoded on pDML924; Immobilised on the SPR chip as in Egan et al. 2014 / Gray et al. 2015; also called WT PBP1B; WT; source: E. coli BL21(DE3), purified (membrane extract, HisTrap, thrombin, HiTrap SP ion exchange)
T3 sequence (looked up): T1 sequence (looked up) with C117P, C599I

B1: LpoB (natural protein, E. coli)
chain: VGQREPAPVEEVKPAPEQPAEPQQPVPTVPSVPTIPQQPGPIEHEDQTAPPAPHIRHYDWNGAMQPMVSKMLGADGVTAGSVLLVDSVNNRTNGSLNAAEATETLRNALANNGKFTLVSAQQLSMAKQQLGLSPQDSLGTRSKAIGIARNVGAHYVLYSSASGNVNAPTLQMQLMLVQTGEIIWSGKGAVSQQ
notes: LpoB, E. coli; also called lipoprotein LpoB; source: E. coli BL21(DE3), purified (HisTrap, Superdex 200), as in Egan et al. 2014
Consider B1, for which the values for the Kd (with PBP1B P162C/I644C; with PBP1B D443A; in test [1]) were 213 nM, 289 nM and 491 nM, respectively.
